The labels stand for the following.
B1: RNF115 peptide 69-84 (E3 ubiquitin-protein ligase RNF115), 16-mer library wild type / MDM2 SWIB (MDM2 SWIB/MDM2 domain, residues 17-125) (parent complex)
chain 1: THFAELWGHLDHTMFF
chain 2: SQIPASEQETLVRPKPLLLKLLKSVGAQKDTYTMKEVLFYLGQYIMTKRLYDEKQQHIVYCSNDLLGDLFGVPSFSVKEHRKIYTMIYRNLVVVNQQESSDSGTSVSEN

The experiment covers variants of B1. Nature of the experiment: proteomic peptide phage display deep mutational scan (ProP-PD DMS): M13 P8 16-mer library selected against immobilised GST-tagged bait for four days (rounds), NGS of the eluted pools per day and pseudo-replica; bait immobilised on MaxiSorp plates (10 µg), library pre-cleared on GST, 2 h binding at 4 °C, five washes; one round per day, days 1-4; value from days 2 and 3.
As to chain 1 A4T, the screen value is 0.000121 average fractional NGS count over selection days 2 and 3 (reads of this peptide / all reads for the bait, averaged over ….
The figure for chain 1 A4S is 0.00536 average fractional NGS count over selection days 2 and 3 (reads of this peptide / all reads for the bait, averaged over ….
For the variant chain 1 A4M, the screen value was 0.000942 average fractional NGS count over selection days 2 and 3 (reads of this peptide / all reads for the bait, averaged over ….
Take chain 1 A4F: the screen value was 0.000182 average fractional NGS count over selection days 2 and 3 (reads of this peptide / all reads for the bait, averaged over ….
chain 1 A4V: the screen value was 0.000584 average fractional NGS count over selection days 2 and 3 (reads of this peptide / all reads for the bait, averaged over ….
The value for chain 1 A4I was 0.000788 average fractional NGS count over selection days 2 and 3 (reads of this peptide / all reads for the bait, averaged over ….
The value for chain 1 A4E was 0.000667 average fractional NGS count over selection days 2 and 3 (reads of this peptide / all reads for the bait, averaged over …; that for chain 1 A4W was 0.000398 average fractional NGS count over selection days 2 and 3 (reads of this peptide / all reads for the bait, averaged over ….
The figure for chain 1 T1Y is 0.000395 average fractional NGS count over selection days 2 and 3 (reads of this peptide / all reads for the bait, averaged over ….
chain 1 T1G: the screen value was 0.000168 average fractional NGS count over selection days 2 and 3 (reads of this peptide / all reads for the bait, averaged over ….
The figure for chain 1 T1M is 0.0023 average fractional NGS count over selection days 2 and 3 (reads of this peptide / all reads for the bait, averaged over ….
The value for chain 1 T1V was 0.00156 average fractional NGS count over selection days 2 and 3 (reads of this peptide / all reads for the bait, averaged over …; that for chain 1 L6A was 0.00179 average fractional NGS count over selection days 2 and 3 (reads of this peptide / all reads for the bait, averaged over …; that for chain 1 L6F was 0.00096 average fractional NGS count over selection days 2 and 3 (reads of this peptide / all reads for the bait, averaged over ….
The figure for chain 1 H12T is 0.00036 average fractional NGS count over selection days 2 and 3 (reads of this peptide / all reads for the bait, averaged over …; for chain 1 H12M it is 0.00543 average fractional NGS count over selection days 2 and 3 (reads of this peptide / all reads for the bait, averaged over …; for chain 1 H12D it is 0.00032 average fractional NGS count over selection days 2 and 3 (reads of this peptide / all reads for the bait, averaged over ….
Take chain 1 H12P: the screen value is 0.000332 average fractional NGS count over selection days 2 and 3 (reads of this peptide / all reads for the bait, averaged over ….
The figure for chain 1 H12G is 0.0011 average fractional NGS count over selection days 2 and 3 (reads of this peptide / all reads for the bait, averaged over ….
The value for chain 1 H12Q was 0.000843 average fractional NGS count over selection days 2 and 3 (reads of this peptide / all reads for the bait, averaged over ….
On to chain 1 D11M, for which the screen value is 0.000791 average fractional NGS count over selection days 2 and 3 (reads of this peptide / all reads for the bait, averaged over ….
The value for chain 1 D11A was 0.0112 average fractional NGS count over selection days 2 and 3 (reads of this peptide / all reads for the bait, averaged over ….
As for chain 1 D11L, the screen value was 0.000447 average fractional NGS count over selection days 2 and 3 (reads of this peptide / all reads for the bait, averaged over ….
The figure for chain 1 D11S is 0.00405 average fractional NGS count over selection days 2 and 3 (reads of this peptide / all reads for the bait, averaged over ….
The figure for chain 1 D11P is 0.000507 average fractional NGS count over selection days 2 and 3 (reads of this peptide / all reads for the bait, averaged over …; for chain 1 D11E it is 0.000686 average fractional NGS count over selection days 2 and 3 (reads of this peptide / all reads for the bait, averaged over …; for chain 1 D11T it is 0.000142 average fractional NGS count over selection days 2 and 3 (reads of this peptide / all reads for the bait, averaged over ….
With chain 1 D11Y, the screen value was 0.000538 average fractional NGS count over selection days 2 and 3 (reads of this peptide / all reads for the bait, averaged over ….
The figure for chain 1 H9T is 0.00161 average fractional NGS count over selection days 2 and 3 (reads of this peptide / all reads for the bait, averaged over …; for chain 1 H9R it is 0.00234 average fractional NGS count over selection days 2 and 3 (reads of this peptide / all reads for the bait, averaged over ….
chain 1 H9G: the screen value was 0.00212 average fractional NGS count over selection days 2 and 3 (reads of this peptide / all reads for the bait, averaged over ….
The figure for chain 1 H9I is 0.00113 average fractional NGS count over selection days 2 and 3 (reads of this peptide / all reads for the bait, averaged over ….
The figure for chain 1 H9N is 0.00523 average fractional NGS count over selection days 2 and 3 (reads of this peptide / all reads for the bait, averaged over ….
The figure for chain 1 H9V is 0.00147 average fractional NGS count over selection days 2 and 3 (reads of this peptide / all reads for the bait, averaged over …; for chain 1 M14W it is 0.00207 average fractional NGS count over selection days 2 and 3 (reads of this peptide / all reads for the bait, averaged over …; for chain 1 M14H it is 0.0015 average fractional NGS count over selection days 2 and 3 (reads of this peptide / all reads for the bait, averaged over ….
As to chain 1 M14Q, the screen value is 0.000925 average fractional NGS count over selection days 2 and 3 (reads of this peptide / all reads for the bait, averaged over ….
The value for chain 1 M14D was 0.00118 average fractional NGS count over selection days 2 and 3 (reads of this peptide / all reads for the bait, averaged over …; that for chain 1 M14Y was 0.00313 average fractional NGS count over selection days 2 and 3 (reads of this peptide / all reads for the bait, averaged over …; that for chain 1 M14N was 0.00152 average fractional NGS count over selection days 2 and 3 (reads of this peptide / all reads for the bait, averaged over ….
Turning to chain 1 F15L, the screen value is 0.0296 average fractional NGS count over selection days 2 and 3 (reads of this peptide / all reads for the bait, averaged over ….
The figure for chain 1 F15D is 0.00754 average fractional NGS count over selection days 2 and 3 (reads of this peptide / all reads for the bait, averaged over ….
The figure for chain 1 F15Y is 0.00151 average fractional NGS count over selection days 2 and 3 (reads of this peptide / all reads for the bait, averaged over …; for chain 1 F15W it is 0.00256 average fractional NGS count over selection days 2 and 3 (reads of this peptide / all reads for the bait, averaged over …; for chain 1 G8R it is 0.000199 average fractional NGS count over selection days 2 and 3 (reads of this peptide / all reads for the bait, averaged over ….
For chain 1 G8A, the screen value was 0.000308 average fractional NGS count over selection days 2 and 3 (reads of this peptide / all reads for the bait, averaged over ….
The value for chain 1 G8H was 0.00286 average fractional NGS count over selection days 2 and 3 (reads of this peptide / all reads for the bait, averaged over …; that for chain 1 G8M was 0.00018 average fractional NGS count over selection days 2 and 3 (reads of this peptide / all reads for the bait, averaged over …; that for chain 1 G8Y was 0.00157 average fractional NGS count over selection days 2 and 3 (reads of this peptide / all reads for the bait, averaged over ….
Turning to chain 1 G8W, the screen value is 0.000927 average fractional NGS count over selection days 2 and 3 (reads of this peptide / all reads for the bait, averaged over ….
For the variant chain 1 F3Q, the screen value is 0.000412 average fractional NGS count over selection days 2 and 3 (reads of this peptide / all reads for the bait, averaged over ….
For chain 1 F3T, the screen value is 9.19e-05 average fractional NGS count over selection days 2 and 3 (reads of this peptide / all reads for the bait, averaged over ….
As for chain 1 T13V, the screen value was 0.0019 average fractional NGS count over selection days 2 and 3 (reads of this peptide / all reads for the bait, averaged over ….
The figure for chain 1 T13H is 0.00485 average fractional NGS count over selection days 2 and 3 (reads of this peptide / all reads for the bait, averaged over …; for chain 1 T13Y it is 0.00269 average fractional NGS count over selection days 2 and 3 (reads of this peptide / all reads for the bait, averaged over …; for chain 1 T13D it is 0.00412 average fractional NGS count over selection days 2 and 3 (reads of this peptide / all reads for the bait, averaged over ….
The figure for chain 1 T13R is 0.00097 average fractional NGS count over selection days 2 and 3 (reads of this peptide / all reads for the bait, averaged over …; for chain 1 T13A it is 0.00106 average fractional NGS count over selection days 2 and 3 (reads of this peptide / all reads for the bait, averaged over …; for chain 1 T13M it is 0.000376 average fractional NGS count over selection days 2 and 3 (reads of this peptide / all reads for the bait, averaged over ….
chain 1 L10I: the screen value is 0.00104 average fractional NGS count over selection days 2 and 3 (reads of this peptide / all reads for the bait, averaged over ….
In the case of chain 1 L10V, the screen value is 0.000492 average fractional NGS count over selection days 2 and 3 (reads of this peptide / all reads for the bait, averaged over ….
As to chain 1 L10F, the screen value is 0.00105 average fractional NGS count over selection days 2 and 3 (reads of this peptide / all reads for the bait, averaged over ….
The figure for chain 1 E5A is 0.000481 average fractional NGS count over selection days 2 and 3 (reads of this peptide / all reads for the bait, averaged over …; for chain 1 E5Y it is 0.000681 average fractional NGS count over selection days 2 and 3 (reads of this peptide / all reads for the bait, averaged over …; for chain 1 E5N it is 0.000269 average fractional NGS count over selection days 2 and 3 (reads of this peptide / all reads for the bait, averaged over ….
The figure for chain 1 E5D is 0.00488 average fractional NGS count over selection days 2 and 3 (reads of this peptide / all reads for the bait, averaged over ….
For the variant chain 1 E5T, the screen value was 0.000518 average fractional NGS count over selection days 2 and 3 (reads of this peptide / all reads for the bait, averaged over ….
As for chain 1 E5W, the screen value was 0.00018 average fractional NGS count over selection days 2 and 3 (reads of this peptide / all reads for the bait, averaged over ….
The figure for chain 1 H2V is 0.00468 average fractional NGS count over selection days 2 and 3 (reads of this peptide / all reads for the bait, averaged over ….
The value for chain 1 H2S was 0.0241 average fractional NGS count over selection days 2 and 3 (reads of this peptide / all reads for the bait, averaged over ….
chain 1 H2R: the screen value was 0.000186 average fractional NGS count over selection days 2 and 3 (reads of this peptide / all reads for the bait, averaged over ….
On to chain 1 H2N, for which the screen value is 0.000593 average fractional NGS count over selection days 2 and 3 (reads of this peptide / all reads for the bait, averaged over ….
Consider chain 1 H2W, for which the screen value is 0.000523 average fractional NGS count over selection days 2 and 3 (reads of this peptide / all reads for the bait, averaged over ….
The figure for chain 1 H2D is 0.00139 average fractional NGS count over selection days 2 and 3 (reads of this peptide / all reads for the bait, averaged over ….
With chain 1 H2A, the screen value is 0.000678 average fractional NGS count over selection days 2 and 3 (reads of this peptide / all reads for the bait, averaged over ….
